assay: yeast display, Sf9 membrane polyspecificity reagent, FACS + sequencing; frameworks hold sequencing errors
How it was run: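 Using colony PCR, genes from sorted yeast display clones were amplified, then sequenced on MiSeq at 2 × 250 and filtered by CDR length. The clones had been stained with 10% biotinylated, detergent-solubilized Sf9 membrane reagent for 1 hour at 4 °C and sorted by FACS into low and high (top ~1%) gates on anti-HA and streptavidin fluorescence. Polyreactivity labels come from the gate of origin.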

Sequence	polyreactivity (PSR sort gate)
QVQLVESGGGLVQAGGSLSLSCAASGSIFYGYAMGWYRQAPGKERELVAAITSGGRTYYADSVKGRFTISRDNAKNTVYLQMNSLKPEDTAVYYCNAVYRKTSYGYWGQGTQVTVSS	high polyreactivity
QVQLVESGGGLVQAGGSLRLSCAASGSTFATDAMGWYRQAPGTERELVAVISRSGGSTYYADSVKGRFTISRDNAKNTVYLQMNSLKPEDTAVYYCAARLVNKSRWGTLRYDYWGQGTQVTVSS	high polyreactivity
QVQLVESGGGLVQAGGSLRLSCAASGRIFWQYAMGWYRQAPGKERELVAAISRSGGSTYYADSVKGRFTISRDNAKNTVYLQMKCLTPEDTAVYYCAARKASGVPGSAGRPEYYYWGQGTQVTVSS	high polyreactivity
QVQLVESGGGLVQAGGSLRLSCAASGFTSSYYAMGWYRQAPGKERELVAAISSSGGSTYYADSVKGRFTISRDNAKNTVYLQMNSLKPEDTAVYYCAAARRERAGRQYDYWGQGTQVTVSS	low polyreactivity
QVQLVESGGGLVQAGGSLRLSCAASGNIFYKYAMGWYRQAPGKERELVAAITWRVVRTYYADSVKGRFTISRDNAKNTVYLQMNSLKPEDTAVYYCAALSRQSGDYWGQGTQVTVSS	high polyreactivity
QFQLVESGGGLVQAGGSLRLSCAASGRTFWYYDMGWYRQAPGKERELFATITSGGSTNYADSVKGRFTISRDNAKNTVYLQMNSLKPEDTAVYYCAAARWRWQLARDDYWGQGTQVTLSS	high polyreactivity
QVQLVESGGGLVQAGGSLRLSCAASGSTFSGNAMGWYRQAPGKERELVASITDGGNTYYADSVKGRFTISRDNAKNTVYLQMNSLKPEDTAVYYCAAEILWGGYDYWGQGTQVTVSS	low polyreactivity
QVQLVESGGGLFQAGGSLRLSCAASGFTFIYYAMGSYRQAPGKATELVSAITHSGGSTYYADSVKGRFTISRDNAKTTVSLQMNSLNPEDTAVYYCAARLTWSRYQKYRTSSWQSYYWGQGTQVTVSS	high polyreactivity
QVQLQESGGGLVQAGGSLCLSCAASGTIFFDGDMGWYRQAPGKEREFVAAINPGGSAYYADSVKGRLPLAAITHTVYLQMNSLKPEDTAVYYCAAKLFDVYGYYYWGQGTHVTVSS	low polyreactivity
QVQLVESGGGLVQAGGSLRLSCSDSGRTFGGNAMGRYRQAPGKERELVAAISRSGGTTYYADSVKGRFTISRDNAKNTVYLQMNSLKPEDTAVYYCNTRRYGAMYYWGQGTQVTVSS	high polyreactivity
QVQLVESGGGLVQAGGSLRLSCAASGRIYNYYAMGWYIPAPGKERELVAAISSSGGRTYYADSVKGRFTISRDNAKNTVYLQMNSLKPEDTAVYYCAAYDSLRYSTYDYWGQGTQVTVSS	high polyreactivity
QVLLVESGGGLVQAGGSLRLSCAASGRTFRGNAMGWYRQAPGKERELVAAISRSGGTTYYADSVKGRFTISRYNAKNTVYLQMNSLKPEDTAVYYCNRGWATWHGPDDYWGQGTQVTVSS	high polyreactivity
QDQLVESGGGLVQAGGSLRLSCAASGLTFQYNAMGWYRQAPRKERELVATISQSGGSTYYADSVKGRFTISRDNAKNTVYLQMNSLKREDTAVYYCAAYRAWTWRIRYDYWGQGTQVTVSS	low polyreactivity
QVQLVESGGGLVQAGGSLRLSCAASGRTFVSYAMGWYRPAPGKERELVAGISWSGDSTYYADSVKGRFTISRDNAKNTVYLEMNSLKPEDSAVYYCAAYGPFIYGGHHYNYWGQGTQVTVSS	low polyreactivity
QVQIVESGGGLVQAGGSLRLSCAASGSTFFANTMGWYRQAPGKERELVAAISWSSVRTYYADSVKGRFTISRDHAKNTVYLQMNSLKPEDTAVYYCAAYSRFRYDYWGQGTQVTVSS	high polyreactivity
QVQLVESGGGLVQAGGSLRLSCAASGRTFGTNGMGWYRQAPGKERELVAVITWTGGSTYYADSVKGRFTISRDNAKNTVYLQMNSLKPEDTAVYYCAAKYSHLGYNYWGQGTQVTVSS	high polyreactivity
QVQHVQSGGGLVQAGGSLRLSCAAAGFIYNNAMGWYRQAPGKETELVATISTSGTDTYYADSVKGRFTISRDNAKNTVYLQMNSLKPEDTAVYYCNADTEIYDSYSSYWTRYEYWGQGTQVTVSS	low polyreactivity
QVQLVESGGGLVQAGGSLRLISAASGSIFPAYDMGLYRQAPGKEREFLPAIERGGSTYYADSVKGRYTISRDNAKNTVYLPMNSLKPVDTAVFYCATDCPEYPNYISSAGFDYWGQGTQVNVSS	low polyreactivity
QVQLVESGGGLAQAGGSLRLSCAASGRTFRRYAMGWYRQAPGKEREMVAAITSGGDTYYADSVKGRFTISRDNAKNTVYLQMNSLKPEDTAVYYCNAASVTRRTGIRAVDFDYWGQGTQVTVSS	high polyreactivity
QVQHVESGVGLVQAGGSLRLSCAASGFTFGWYAMGWYRQAPGKERELVASISWSGSTTYYADSVKGRFTISRDIAKNTVYLQMNSLKPEDTAVYYCNARRSYVRNDFDYWGQGTQVTVSS	high polyreactivity

Sequence	polyreactivity (PSR sort gate)
QVQLVESGGGLVQAGGSLRLSCAASGRTFGVYAMGWYRQAPGKDSELVEAINNGGSTNYADSVKGRFTISRDNAKNTVYLQINSLKPEDTAVYNCNAVVGYRHWPYYRGEYDYWGQGTQVTVSS	low polyreactivity
QVQLVESGGGLVQAGGSLRLSCAASGRIFWRYAMGWYRQAPGQERELVAAISRGGGRTYYADSVKGRFTSSRDNAKNTVYLQMNSLKPEDTAVYYCAARSTQGRFENWGQGTQVTVSS	high polyreactivity
QVQLVESGGGLVQAGGSLRLSCAASGSIFNAYVMGWYRQAPGKERELVAAISRSGGRTYYADSVKGRFTISRDNAKNTVYLQMNSLKPEDNAVYYCAADYGGPYGQLDYWGQGTQVTVSS	high polyreactivity
QVQLVESGGGLVQAGGSLRLSCAASGSILQINPMGWYRPAPAKERDLVAANDWGGGDTYYADSVKGRFTIARDNAKNTVYVQMISLKTEDTAVYYCAAEGVSWYVWDFYDIYGYWGHGTQVTVSS	high polyreactivity
QVQLVESGGGLVQAGGSLRLSCAASGFIFYSNAMGWYRQAPGKDRELVASITGDGGTTYYADSVKGRFTISRDKAKNTVYLQMNSLKPEATAVYYCAKDYIYRGYYTDFRYEDYDYWGPGTQVTVSS	low polyreactivity
QVQLVESGGGLVQSGGSLRLSCAASGSTVTQYVMGWYRQAPGKERELVAAISDSGSTYYADSVKGRFTISRDKAKNTVYLQMNSLKPEDTAVYYCAAAAPYHGLLYEGDYGGQGTQVTVSS	low polyreactivity
QVQLVESGGGLDQARGTLSLICAASGSIFRHYAMGWYRQAPWKERELVAAISGSGATTYYADSVKGRFTISRDNAKNTVYLQMKSLKPVDNAVYYCAARTTYITTWVYRHNYTYYYWGQGTQVTVSS	high polyreactivity
QVQLEESGGRLVQAGGSLRLSCAASGFTFRYYAMGWYRQAPGKERELVAAITSGGSTNYADSVKGRFTISRDNAKNTVYLQMNSLKPEDTAVYYCKKVPWGSRRMDYWGQGTQVTVSS	high polyreactivity
QVQLVESGGGLVQAGGSLRLSCAASGSIFTEYAMGWYIQAPGKERELVAAISWSGATTYYADSVKGRFTISRDNAKNTVYLQMNSLKPEDTAVYYCAARWANRSYEYWGQGTQVTVSS	low polyreactivity
QVQLVESGGGLVQAGGSLRLSCAASGNTLYRNALGWYRQAPGKERELVAAIRLSGGSTYYADSVKGRFTISRDNAKNTVYLQMNSLKPEDTAVYYCAVRIRYYTGFYSWGQGTQVTVSS	high polyreactivity
QVQLVESGGGLVQAGASIRLSCAASGSTFYTYDMGRYIQAPGKERELVAVITPRSGTTSYADSVKGRFTISRDYAKNTVYLQMNSLKPEDTAVYYCNVYIPYSYGEYDYWGQGTQVTVSS	high polyreactivity
QVQLVESGGGLVQAGGSLRLSCAASGFIFYPNAMGWYRQAPGKERELVAAISSSTGSTYYADSVKGRFTISRDNAKNTVYLQMNSLNRVDTAGYYCAADLEYYPIGGDLQEREYWGQGTQVTVSS	low polyreactivity
QVQLVESGGGLVQAGGSLRLSCAASGSIFNSYAMGWYRQAPGKERELVAAISRSGGRTYYADSVKGRFTISRDNAKNTVYLQMNSLKPEDTAVYYCAADAGSYLSYKAWARKMYYLGQGTQVTVSS	high polyreactivity
QVQLVESGGGLVQAGGSLRLSCAASGNTFRLYAMGWYRQAPGKERELVATITSGVSTNYADSVKGRFTISRDNAKNTVYLQMNSLKPEDTAVYYCAARHYYTYSSGFGRYIYTEYYWGQGTQVTVSS	low polyreactivity
QVLLQESGGGLVQAGGSLRLSCAASGSIFLFYTMGWYRQAPVKEREFVAGITLGTTTYNADSVKGRFTISRDNVKNTVYLQMNSLKPEDTAVYYFAVAVGHYTEFWYWGQGTQVTMSS	high polyreactivity
QVQLVESGGGLVQAGGSLRLSCAASGNTFRSYVMGWYRQAPGKERELVAVITKSGGSTYYADSVKGRFTISRDNAKNTVYLQMNSLKPEDTAVYYCAADRPAYGVGYWGQGTQVTVSS	high polyreactivity
QVQLVESGGGLVQAGGSLRLSCAASGRTFGYNAMGWYREAPGKERELVAAITLGGITHYADSVKGRFTISRDNAKNTVYLQMNSLKPEDTAVYYCAKRGPYYNDDEYYWGQGTQVTVSS	low polyreactivity
QVHLVESGGGLVQAGGSLRLSCAASVRIISAYAMGWYRQAPGKERELVAAINGSGGSTYYADSVKGRFTISRDNAKNTVYLQMNSLKPEDTAVYYCAAKIDYPDARYFPYRYYYWGQGTQVTVSS	high polyreactivity
QVQLVESGGGLVQAGGSLRLSCAASGNIFTYYVMGWYRQAPGKERELVAAISRRGGSTYYADSVKGRFTISRDNAKNTVYLQMNSLKPEDTAVYYCAKKYPRDMDYWGQGTQVTVSS	high polyreactivity
QVQLVESGGGLVQAGGSLRLSSAASGIIFTFNAMRWYRQAPGKEMELVAGISLGGSSTNYADSVKGRFTISRDNAKNTVYLQMNSLKPEDTAVYYCAAYVDIVGDYWVVGYYYWGQGTQVTVSS	low polyreactivity

Reference: the nanobody polyreactivity screen of Harvey et al. (2022)
